Test results from PMC7773321.

Assays:
Neutrophil elastase = Neutrophil elastase (UniProt P08246)
UniProt P08246, sequence (P08246 30-267): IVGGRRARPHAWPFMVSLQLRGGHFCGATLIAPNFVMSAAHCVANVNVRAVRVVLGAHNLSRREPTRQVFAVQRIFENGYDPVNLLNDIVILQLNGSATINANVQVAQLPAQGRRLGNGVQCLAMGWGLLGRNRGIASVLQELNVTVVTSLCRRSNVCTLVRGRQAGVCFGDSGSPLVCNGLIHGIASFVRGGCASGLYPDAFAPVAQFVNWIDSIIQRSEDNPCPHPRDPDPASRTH

Substance	IC50 of inhibition of NE activity (fluorometric NE activity assay, 25 nM NE, 0-50 nM ecotin, 37°C) (Neutrophil elastase)	cleavage of the FRET peptide Dabcyl-…-Edans by factor Xa with 15 nM ecotin, relative fluorescence units after 60 min (0-60 min followed; 350 RFU without ecotin) (Factor Xa)
Ecotin from Campylobacter showae, C-terminal His6 fusion (natural protein)	4.78 nM	17.7 RFU
Ecotin from E. coli, C-terminal His6 fusion (from UniProt P23827 21-162) (natural protein)	4.64 nM	21.3 RFU
Ecotin from Campylobacter rectus, C-terminal His6 fusion (natural protein)	4.49 nM	48 RFU
